T1: GFP-9S library array, motif 4 ND N98C;D124V (synthetic construct, N98C;D124V)
T1 chain: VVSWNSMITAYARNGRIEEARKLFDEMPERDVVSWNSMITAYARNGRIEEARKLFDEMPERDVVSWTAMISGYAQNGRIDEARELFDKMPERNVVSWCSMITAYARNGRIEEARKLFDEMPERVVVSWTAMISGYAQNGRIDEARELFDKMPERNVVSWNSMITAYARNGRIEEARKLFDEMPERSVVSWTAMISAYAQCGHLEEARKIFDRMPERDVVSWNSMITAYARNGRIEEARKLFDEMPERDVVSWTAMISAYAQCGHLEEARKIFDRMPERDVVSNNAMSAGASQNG

T2: GFP-9S library array, motif 4 ND N98I;D124P (synthetic construct, N98I;D124P)
T2 chain: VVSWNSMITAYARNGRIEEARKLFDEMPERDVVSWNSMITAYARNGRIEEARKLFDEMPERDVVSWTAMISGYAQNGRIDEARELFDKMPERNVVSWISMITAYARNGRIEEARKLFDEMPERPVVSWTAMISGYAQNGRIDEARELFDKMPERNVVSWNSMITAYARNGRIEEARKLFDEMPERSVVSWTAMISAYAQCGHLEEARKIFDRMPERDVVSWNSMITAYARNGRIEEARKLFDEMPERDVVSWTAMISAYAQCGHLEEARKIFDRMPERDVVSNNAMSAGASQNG

T3: GFP-9S library array, motif 4 ND N98F;D124P (synthetic construct, N98F;D124P)
T3 chain: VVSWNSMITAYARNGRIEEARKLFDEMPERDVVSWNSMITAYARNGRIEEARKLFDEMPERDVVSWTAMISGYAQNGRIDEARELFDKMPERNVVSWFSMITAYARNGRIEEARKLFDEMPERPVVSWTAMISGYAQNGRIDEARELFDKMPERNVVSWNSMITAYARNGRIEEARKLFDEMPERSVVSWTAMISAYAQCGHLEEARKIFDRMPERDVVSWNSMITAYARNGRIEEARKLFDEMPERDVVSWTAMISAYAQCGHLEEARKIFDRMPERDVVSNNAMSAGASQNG

T4: GFP-9S library array, motif 4 ND N98K;D124K (synthetic construct, N98K;D124K)
T4 chain: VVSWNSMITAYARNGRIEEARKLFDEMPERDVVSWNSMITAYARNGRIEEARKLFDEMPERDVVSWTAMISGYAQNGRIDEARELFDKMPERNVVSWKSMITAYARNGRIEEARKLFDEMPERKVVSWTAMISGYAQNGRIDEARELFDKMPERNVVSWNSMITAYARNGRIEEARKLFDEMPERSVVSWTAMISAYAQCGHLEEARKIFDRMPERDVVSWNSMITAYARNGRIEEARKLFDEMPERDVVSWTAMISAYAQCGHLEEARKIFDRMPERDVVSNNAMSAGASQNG

T5: GFP-9S library array, motif 4 ND N98M (synthetic construct, N98M)
T5 chain: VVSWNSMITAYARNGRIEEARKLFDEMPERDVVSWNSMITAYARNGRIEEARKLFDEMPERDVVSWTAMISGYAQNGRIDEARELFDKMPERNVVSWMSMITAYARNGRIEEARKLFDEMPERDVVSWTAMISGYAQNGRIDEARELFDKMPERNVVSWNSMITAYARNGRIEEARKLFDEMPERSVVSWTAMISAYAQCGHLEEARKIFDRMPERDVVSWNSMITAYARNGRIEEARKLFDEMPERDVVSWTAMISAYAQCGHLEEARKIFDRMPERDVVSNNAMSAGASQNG


Tests used:
Test in all cases: high-throughput RNA pulldown from lysate on Ni-NTA beads; HRP: 50 mM Tris pH 8, 150 mM NaCl, 1 mM beta-mercaptoethanol, 50 ug/ml BSA, 3 ug/ml yeast RNA, 0.5% heparin; ITC and FP: Tris pH 8, 200 mM KCl, 5% glycerol; MST: 50 mM Tris pH 8, 200 mM NaCl, 1 mM DTT, BSA, heparin, 0.05% Tween 20
Conditions in all cases: tags: N-terminal His-eGFP
[1] = target: T1, GFP-9S library array, motif 4 ND …
[2] = target: T2, GFP-9S library array, motif 4 ND …
[3] = target: T3, GFP-9S library array, motif 4 ND …
[4] = target: T4, GFP-9S library array, motif 4 ND …
[5] = target: T5, GFP-9S library array, motif 4 ND N98M

| Binder | Kd ([1]; label: 5' IRDye 800CW) [nM] | Kd ([2]; label: 5' IRDye 800CW) [nM] | Kd ([3]; label: 5' IRDye 800CW) [nM] | Kd ([4]; label: 5' IRDye 800CW) [nM] | Kd ([5]; label: 5' IRDye 800CW) [nM] | Kd ([1]; label: 5' Cy5) [nM] | Kd ([2]; label: 5' Cy5) [nM] | Kd ([3]; label: 5' Cy5) [nM] | Kd ([4]; label: 5' Cy5) [nM] | Kd ([5]; label: 5' Cy5) [nM] |
| --- | --- | --- | --- | --- | --- | --- | --- | --- | --- | --- |
| AUUAAACGUGA (ssRNA) [IR-rpoA-A] | 98.1 | 266 | 393 | 254 | 296 |  |  |  |  |  |
| AUUAUACGUGA (ssRNA) [IR-rpoA-U] | 167 | 269 | 196 | 83.8 | 129 |  |  |  |  |  |
| AUUAGACGUGA (ssRNA) [Cy5-rpoA-G] |  |  |  |  |  | 124 | 112 | 181 | 119 | 43.1 |
| AUUACACGUGA (ssRNA) [Cy5-rpoA] |  |  |  |  |  | 130 | 132 | 140 | 102 | 143 |

From paper PMC8809517, “Cofactor-independent RNA editing by a synthetic S-type PPR protein”
